Consider 1 molecule from paper PMC4605657, “Interaction between TATA-Binding Protein (TBP) and Multiprotein Bridging Factor-1 (MBF1) from the Filamentous Insect Pathogenic Fungus Beauveria bassiana” (PLoS ONE, 2015).

In this experiment the target is T1, Beauveria bassiana TATA-binding protein (BbTBP) (Beauveria bassiana, UniProt J4W563 1-253).
T1 construct: open reading frame amplified with primers PTBP-F/PTBP-R and cloned EcoRI/HindIII into pET28a; the forward primer begins at the codon after the start methionine (GAG GGC ATT ...), the reverse primer holds the stop codon; also called BbTBP1; source: E. coli Rosetta DE3, purified (Ni- or Co-NTA agarose)
T1 sequence: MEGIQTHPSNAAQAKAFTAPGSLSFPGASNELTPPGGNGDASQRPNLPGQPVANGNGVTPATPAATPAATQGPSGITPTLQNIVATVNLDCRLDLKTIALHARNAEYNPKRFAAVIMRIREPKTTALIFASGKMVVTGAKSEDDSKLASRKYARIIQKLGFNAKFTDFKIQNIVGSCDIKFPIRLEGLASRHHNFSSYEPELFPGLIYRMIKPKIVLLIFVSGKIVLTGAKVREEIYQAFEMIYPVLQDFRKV
Kind of experiment: native gel or EMSA; super-shift on 6% non-denaturing PAGE; BbTBP 1129 nM and BbMBF1 855 nM with TATA-containing oligonucleotide (TATA^C 16.8 nM or TATA^P 18.3 nM); 30 min at 37°C; 60 mM KCl, 20 mM Tris pH 7.9, 5.0 mM MgCl2, 10 mM dithiothreitol, 0.2 mg/ml BSA, 10% glycerol; nucleic acid and protein stain. The settings on record: both partners purified.

B1: Beauveria bassiana multiprotein bridging factor 1 (BbMBF1) (natural protein)
chain: not shown
notes: Multiprotein bridging factor 1 of Beauveria bassiana, locus tag BBA_01830, 153 amino acids; open reading frame amplified with primers PMBF1-F/PMBF1-R and cloned EcoRI/HindIII into pET28a; the forward primer begins at the codon after the start methionine (TCT GAC GAC ...), the reverse primer holds the stop codon; source: E. coli Rosetta DE3, purified (Ni- or Co-NTA agarose)
B1: the binding result is given as “binds”.
